Data published in CN101448941A.

Legend:
[1] = molecular target: 人血小板生成素受体 (人c-Mpl) (human) (UniProt P40238); assay: cell-based or functional assay
[2] = molecular target: 人血小板生成素受体 (人c-Mpl) (human) (UniProt P40238); assay: flow cytometry on FM3A-hMpl cells

B1: 7-10G4344uhm轻链突变抗体 7-10VL_Y94F (antibody, part only; not given: heavy chain, not shown: a dimerising Fc or GST)
light: AIQLTQSPSSLSASVGDRVTITCRASQGISSALAWYQQKPGKAPKLLIYDASSLESGVPSRFSGSGSGTDFTLTISSLQPEDFATYYCQQFNSFPLTFGGGTKVEIK
激动活性 (UT-7/TPO细胞增殖试验), relative to 7-10G4344uhm (of the original level) [1]: 0.1
结合活性 relative to the original 7-10G4344uhm (of the original level) [2]: 0.1
